# Measurements published in patent US6953794.
# pKd: −log10 of the molar value.
# Target: truncated core tau unit terminating at Ala-390 (human) (UniProt P10636)
# Test: ELISA tau-tau binding assay; core tau unit in the solid phase, full-length tau in the aqueous phase
# Chain of truncated core tau unit terminating at Ala-390 (human) (P10636 614-707 limits assumed): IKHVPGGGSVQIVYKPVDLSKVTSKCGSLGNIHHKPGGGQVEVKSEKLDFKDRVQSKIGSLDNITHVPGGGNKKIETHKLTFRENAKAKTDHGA
substance,measurement,value
normal full-length tau protein (the particular tau species/isoform tested),pKd,7.60 to 8.10
